Laboratory results: patent US20040110688

Assays:
factor VIIIa, P00451 = target: T1, factor VIIIa, P00451
T1 chain: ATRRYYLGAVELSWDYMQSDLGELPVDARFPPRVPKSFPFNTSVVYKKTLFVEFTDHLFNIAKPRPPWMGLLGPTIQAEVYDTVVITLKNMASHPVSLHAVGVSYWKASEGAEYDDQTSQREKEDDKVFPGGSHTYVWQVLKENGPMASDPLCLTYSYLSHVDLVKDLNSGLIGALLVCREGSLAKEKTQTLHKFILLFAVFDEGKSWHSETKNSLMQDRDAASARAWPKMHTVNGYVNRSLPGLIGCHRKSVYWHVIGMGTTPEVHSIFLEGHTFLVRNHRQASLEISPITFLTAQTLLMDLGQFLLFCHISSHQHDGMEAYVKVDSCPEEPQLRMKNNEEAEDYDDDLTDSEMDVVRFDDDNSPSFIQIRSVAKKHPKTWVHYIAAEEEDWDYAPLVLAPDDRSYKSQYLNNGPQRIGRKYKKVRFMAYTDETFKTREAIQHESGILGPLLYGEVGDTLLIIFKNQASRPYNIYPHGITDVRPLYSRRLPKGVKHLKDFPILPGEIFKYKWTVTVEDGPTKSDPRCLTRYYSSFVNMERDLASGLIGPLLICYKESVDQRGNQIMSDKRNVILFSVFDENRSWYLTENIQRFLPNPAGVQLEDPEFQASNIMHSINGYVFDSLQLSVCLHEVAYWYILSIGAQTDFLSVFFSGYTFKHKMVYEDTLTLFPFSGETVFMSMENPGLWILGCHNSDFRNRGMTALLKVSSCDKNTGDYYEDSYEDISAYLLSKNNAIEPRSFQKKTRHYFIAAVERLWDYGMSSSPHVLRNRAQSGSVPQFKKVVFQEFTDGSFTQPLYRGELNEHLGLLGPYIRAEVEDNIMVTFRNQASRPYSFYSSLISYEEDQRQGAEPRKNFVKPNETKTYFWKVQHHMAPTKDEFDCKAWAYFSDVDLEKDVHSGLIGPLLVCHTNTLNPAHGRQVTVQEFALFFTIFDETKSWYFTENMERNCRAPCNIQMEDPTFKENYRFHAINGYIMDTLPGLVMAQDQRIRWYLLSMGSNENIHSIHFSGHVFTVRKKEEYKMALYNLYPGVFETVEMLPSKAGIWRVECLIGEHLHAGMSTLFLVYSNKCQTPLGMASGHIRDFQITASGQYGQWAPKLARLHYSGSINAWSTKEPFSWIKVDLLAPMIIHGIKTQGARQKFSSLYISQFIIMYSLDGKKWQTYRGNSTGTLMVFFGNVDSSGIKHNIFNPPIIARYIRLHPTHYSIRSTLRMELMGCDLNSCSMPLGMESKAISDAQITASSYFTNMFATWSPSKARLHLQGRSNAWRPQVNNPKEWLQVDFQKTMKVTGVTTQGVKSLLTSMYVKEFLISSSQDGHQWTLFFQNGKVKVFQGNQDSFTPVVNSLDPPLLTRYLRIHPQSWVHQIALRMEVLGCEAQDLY

B1: IXahelixVII (protein)
chain 1: YNSGKLEEFVQGNLERECMEEKCSFEEAREVFENTERTTEFWKQYVDGDQCESNPCLNGGSCKDDINSYECWCPFGFEGKNCELDVTCNIKNGRCEQFCKNSADNKVVCSCTEGYRLAENQKSCEPAVPFPCGRVSVSQTSKLTR
chain 2: VVGGEDAKPGQFPWQVVLNGKVDAFCGGSIVNEKWIVTAAHCVETGVKITVVAGEHNIEETEHTEQKRNVIRIIPHHNYNAAINKYNHDIALLELDEPLVLNSYVTPICIADKEYTNIFLKFGSGYVSGWGRVFHKGRSALVLQYLRVPRLMTQDCLQSTKFTIYNNMFCAGFHEGGRDSCQGDSGGPHVTEVEGTSFLTGIISWGEECAMKGKYGIYTKVSRYVNWIKEKTKLT
Factor X, P00742
  rate of factor Xa generation, Ca2+ and phospholipid, no VIIIa (20 nM IXa, 100 nM X): The rate of factor Xa generation in each case was 0.1 nM/min
Factor VIIIa, P00451
  X-activation rate, PL-minus system (14 nM VIIIa, 400 nM X): NM
  X-activation rate, PL-plus system (70 pM VIIIa, 0.5 nM IXa, 15 nM X): NM
  rate of factor X activation with phospholipid, factor VIIIa increased from 70 pM to 14 nM: for IXahelixVII it was still not measurable
